Measured values taken from publication doi:10.1101/2023.03.06.531343.

The substances below were run against VirE2-Venus (expressed in transgenic Arabidopsis roots) (Agrobacterium tumefaciens) (UniProt P0A3W8) (assay: co-IP).
Chain of UniProt P0A3W8 (P0A3W8 whole entry, the tested form may be a part): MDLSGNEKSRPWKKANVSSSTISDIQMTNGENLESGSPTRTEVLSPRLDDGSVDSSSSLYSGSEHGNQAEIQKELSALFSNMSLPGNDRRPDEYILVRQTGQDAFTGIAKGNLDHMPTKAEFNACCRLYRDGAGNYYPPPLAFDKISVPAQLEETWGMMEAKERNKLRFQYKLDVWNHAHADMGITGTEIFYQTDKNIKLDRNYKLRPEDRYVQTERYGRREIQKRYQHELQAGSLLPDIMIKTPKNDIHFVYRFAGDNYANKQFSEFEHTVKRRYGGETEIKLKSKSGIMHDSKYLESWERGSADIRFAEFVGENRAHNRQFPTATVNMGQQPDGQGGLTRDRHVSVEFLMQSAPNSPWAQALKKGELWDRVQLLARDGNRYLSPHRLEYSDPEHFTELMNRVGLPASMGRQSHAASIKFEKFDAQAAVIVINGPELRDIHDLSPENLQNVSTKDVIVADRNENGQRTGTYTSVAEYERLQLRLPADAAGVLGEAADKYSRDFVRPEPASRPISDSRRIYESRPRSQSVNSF
Work on “myc-tagged myosin VIII-B cargo binding domain (transgenic Arabidopsis roots) (domain or fragment)” yielded a percent of the input co-immunoprecipitated (% of the input) of 4.
Work on “myc-tagged myosin VIII-A cargo binding domain (transgenic Arabidopsis roots) (domain or fragment)” yielded a percent of the input co-immunoprecipitated (% of the input) of 4.
Work on “myc-tagged myosin XI-K cargo binding domain (transgenic Arabidopsis roots) (domain or fragment)” yielded a percent of the input co-immunoprecipitated (% of the input) of 4.
Substance “myc-tagged myosin VIII-2 cargo binding domain (transgenic Arabidopsis roots) (domain or fragment)” has a percent of the input co-immunoprecipitated (% of the input) of 4.
